# Several values for one entry are separate records, joined by “and”; a condition that tells them apart may be missing. Equal values may be shown once.
# T1: MnmG from Escherichia coli, wild type (Escherichia coli, UniProt P0A6U3 1-629)
# T1 construct: tRNA uridine 5-carboxymethylaminomethyl modification enzyme MnmG (formerly GidA), Escherichia coli; open reading frame cloned in a pET14b vector; Homodimer of 70-kDa subunits; also called GidA; MnmG wt
# T1 sequence (looked up): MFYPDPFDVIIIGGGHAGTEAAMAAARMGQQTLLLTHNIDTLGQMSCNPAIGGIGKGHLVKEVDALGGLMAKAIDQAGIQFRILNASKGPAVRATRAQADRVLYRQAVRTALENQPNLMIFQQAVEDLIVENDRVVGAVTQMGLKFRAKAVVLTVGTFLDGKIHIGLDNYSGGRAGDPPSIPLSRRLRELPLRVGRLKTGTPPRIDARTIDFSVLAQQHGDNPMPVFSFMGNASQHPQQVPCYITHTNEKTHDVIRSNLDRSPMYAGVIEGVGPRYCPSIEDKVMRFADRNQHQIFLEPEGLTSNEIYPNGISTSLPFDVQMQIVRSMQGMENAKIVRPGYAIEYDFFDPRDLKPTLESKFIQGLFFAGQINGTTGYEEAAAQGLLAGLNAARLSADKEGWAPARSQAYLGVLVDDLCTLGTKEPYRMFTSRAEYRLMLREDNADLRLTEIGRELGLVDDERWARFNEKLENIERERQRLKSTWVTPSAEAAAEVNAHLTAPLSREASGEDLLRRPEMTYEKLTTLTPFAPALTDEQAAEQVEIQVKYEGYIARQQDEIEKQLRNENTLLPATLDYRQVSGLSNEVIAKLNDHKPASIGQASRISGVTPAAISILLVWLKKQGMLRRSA
# Assays:
# [1] = molecular target: the molecule itself; assay: SEC-MALS + other: SAXS; A. aeolicus MnmG alone; SEC-MALS shows mainly monomer and a minor dimer peak; SAXS with online HPLC gel filtration on the dimer peak
# [2] = molecular target: T1, MnmG from Escherichia coli, wild type; assay: SAXS + SEC-MALS; MnmE-GDP-AlFx mixed in 2-fold molar excess with MnmG; SAXS with online HPLC; molecular weight from SAXS and SEC-MALS; settings: both partners purified
# [3] = molecular target: the molecule itself; assay: SAXS + SEC-MALS; E. coli MnmE without nucleotides; SAXS in batch mode, 20 mM Hepes pH 7.5, 150 mM KCl, 5 mM MgCl2, 2 mM DTT; molecular weight from SAXS and SEC-MALS
# [4] = molecular target: T1, MnmG from Escherichia coli, wild type; assay: ITC; 278 K; 20 mM Hepes pH 7.5, 150 mM NaCl, 5 mM MgCl2, 2 mM BME, 1 mM FAD; 15 uM in the cell, 300 uM in the syringe; titrated in both directions; one site model; apparent; settings: both partners purified
# [5] = molecular target: T1, MnmG from Escherichia coli, wild type; assay: SAXS + SEC-MALS; E. coli MnmE and MnmG mixed equimolar without nucleotides, complex purified by gel filtration; SAXS with online HPLC; molecular weight from SAXS and SEC-MALS; settings: both partners purified
# [6] = molecular target: T1, MnmG from Escherichia coli, wild type; assay: ITC; 278 K; 20 mM Hepes pH 7.5, 150 mM NaCl, 5 mM MgCl2, 2 mM BME, 1 mM FAD; variants: 700 uM MnmE in the syringe into 50 uM MnmG in the cell and vice versa; one site model; apparent; settings: both partners purified
# [7] = molecular target: T1, MnmG from Escherichia coli, wild type; assay: SEC; analytical gel filtration of 66.7 uM MnmE(E282A)-MnmG complex mixed with 100 uM GTP, aliquots between 0 min and 24 h; 20 mM Hepes pH 7.5, 150 mM KCl, 5 mM MgCl2, 2 mM DTT; settings: both partners purified
binder,measurement,setting,value
"MnmG from Aquifex aeolicus (enzyme, UniProt O66962 1-617, looked up, tRNA uridine 5-carboxymethylaminomethyl modification enzyme MnmG, Aquifex aeolicus; open reading frame cloned in a pET28a vector; Mainly a monomer by SEC-MALS, with a minor dimer peak; SAXS was measured on the dimer peak; also called A. aeolicus MnmG; GidA) MAWVVDEFDVVVIGGGHAGIEAALAAARMGAKTAMFVLNADTIGQMSCNPAIGGIAKGIVVREIDALGGEMGKAIDQTGIQFKMLNTRKGKAVQSPRAQADKKRYREYMKKVCENQENLYIKQEEVVDIIVKNNQVVGVRTNLGVEYKTKAVVVTTGTFLNGVIYIGDKMIPGGRLGEPRSEGLSDFYRRFDFPLIRFKTGTPARLDKRTIDFSALEVAPGDDPPPKFSFWTEPVGSYWFPKGKEQVNCWITYTTPKTHEIIRKNLHRTALYGGLIKGIGPRYCPSIEDKIVKFPDKERHQIFLEPEGLDTIEIYPNGLSTSLPEEVQWEMYRSIPGLENVVLIRPAYAIEYDVVPPTELYPTLETKKIRGLFHAGNFNGTTGYEEAAGQGIVAGINAALRAFGKEPIYLRRDESYIGVMIDDLTTKGVTEPYRLFTSRSEYRLYIRQDNAILRLAKLGRELGLLSEEQYKLVKELEREIEKWKEFYKSERVSVAVGGDTRSYSVATLMTMNYTLDDVKEKFGYEVPQHPYVKEEVEIQLKYEPYIERERKLNEKLKKLEDTKIPPDIDYDKIPGLTKEAREKLKKFKPITVGQASRIDGITPAAITALLVYLGKLD",stoichiometry N,[1],2
"MnmE from Escherichia coli, wild type (enzyme, UniProt P25522 1-454, looked up, tRNA modification GTPase MnmE (formerly TrmE), Escherichia coli; open reading frame cloned in a pET20 vector; Homodimer of about 50-kDa subunits; Used nucleotide-free, with GDP-AlFx or with GppNHp depending on the experiment; also called TrmE; MnmE wt) MSDNDTIVAQATPPGRGGVGILRISGFKAREVAETVLGKLPKPRYADYLPFKDADGSVLDQGIALWFPGPNSFTGEDVLELQGHGGPVILDLLLKRILTIPGLRIARPGEFSERAFLNDKLDLAQAEAIADLIDASSEQAARSALNSLQGAFSARVNHLVEALTHLRIYVEAAIDFPDEEIDFLSDGKIEAQLNDVIADLDAVRAEARQGSLLREGMKVVIAGRPNAGKSSLLNALAGREAAIVTDIAGTTRDVLREHIHIDGMPLHIIDTAGLREASDEVERIGIERAWQEIEQADRVLFMVDGTTTDAVDPAEIWPEFIARLPAKLPITVVRNKADITGETLGMSEVNGHALIRLSARTGEGVDVLRNHLKQSMGFDTNMEGGFLARRRHLQALEQAAEHLQQGKAQLLGAWAGELLAEELRLAQQNLSEITGEFTSDDLLGRIFSSFCIGK",stoichiometry N,[2],2
same,stoichiometry N,[3],2
same,Kd,[4],3 µM and 7 µM
same,stoichiometry N,[4],0.5
same,stoichiometry N,[5],1
"MnmE (Y169A, D175A and F176A) with additional S153A (enzyme, Escherichia coli, UniProt P25522 1-454, looked up, MnmE, Escherichia coli, point variant made by QuikChange mutagenesis of the pET20 construct; Variant of m6 with Ser153 also changed to alanine) MSDNDTIVAQATPPGRGGVGILRISGFKAREVAETVLGKLPKPRYADYLPFKDADGSVLDQGIALWFPGPNSFTGEDVLELQGHGGPVILDLLLKRILTIPGLRIARPGEFSERAFLNDKLDLAQAEAIADLIDASSEQAARSALNSLQGAFAARVNHLVEALTHLRIAVEAAIAAPDEEIDFLSDGKIEAQLNDVIADLDAVRAEARQGSLLREGMKVVIAGRPNAGKSSLLNALAGREAAIVTDIAGTTRDVLREHIHIDGMPLHIIDTAGLREASDEVERIGIERAWQEIEQADRVLFMVDGTTTDAVDPAEIWPEFIARLPAKLPITVVRNKADITGETLGMSEVNGHALIRLSARTGEGVDVLRNHLKQSMGFDTNMEGGFLARRRHLQALEQAAEHLQQGKAQLLGAWAGELLAEELRLAQQNLSEITGEFTSDDLLGRIFSSFCIGK",fold decrease in apparent affinity against wild type,[6],≤ 10 fold
"MnmE (E282A) (enzyme, Escherichia coli, UniProt P25522 1-454, looked up, MnmE, Escherichia coli, slowly GTP-hydrolysing point variant; Variant of m1; also called slow hydrolyzing mutant MnmE (E282A)) MSDNDTIVAQATPPGRGGVGILRISGFKAREVAETVLGKLPKPRYADYLPFKDADGSVLDQGIALWFPGPNSFTGEDVLELQGHGGPVILDLLLKRILTIPGLRIARPGEFSERAFLNDKLDLAQAEAIADLIDASSEQAARSALNSLQGAFSARVNHLVEALTHLRIYVEAAIDFPDEEIDFLSDGKIEAQLNDVIADLDAVRAEARQGSLLREGMKVVIAGRPNAGKSSLLNALAGREAAIVTDIAGTTRDVLREHIHIDGMPLHIIDTAGLREASDEVARIGIERAWQEIEQADRVLFMVDGTTTDAVDPAEIWPEFIARLPAKLPITVVRNKADITGETLGMSEVNGHALIRLSARTGEGVDVLRNHLKQSMGFDTNMEGGFLARRRHLQALEQAAEHLQQGKAQLLGAWAGELLAEELRLAQQNLSEITGEFTSDDLLGRIFSSFCIGK",binding result,[7],binds
